Columns and labels:
[1] = test system: HER2 heterodimers and PI3K; assay: Proximity based dimer/complex assay in MCF7 cells; format: cell-based, human; settings: response to ligand, FIG. 20
From the text: FIG. 1A-C show one embodiment of the foregoing proximity assay for detection of dimerization of receptor tyrosine kinases. […] A first detection antibody 115 is then used to bind to a different portion (e.g., epitope) on HER2. A second detection 120 antibody is thereafter used to bind to the dimerized second receptor tyrosine 1kinase e.g., HER3 125. The first detection antibody comprises one or a plurality of first activation state-independent antibodies specific for one member of the dimer, whereas a second detection antibody or a plurality of second detection antibodies is specific for the other member of the dimer. The first detection antibody is labeled with a facilitating moiety e.g., glucose oxidase (GO) and the second detection antibody is labeled with a first member of a signal amplification pair e.g., horseradish peroxidase (HRP). The facilitating moiety generates an oxidizing agent e.g., hydrogen peroxide, which channels to and reacts with the first member of the signal amplification pair. Thereafter, the plurality of detectable captured analytes are incubated with a second member of the signal amplification pair e.g., tyramide or tyramide biotin to generate an amplified signal, which is then detected. […]

PI3K complex = assay: Proximity (CEER) assay detecting PI3K complexes in T47D cells; format: cell-based, human; settings: T47D cells treated with heregulin (HRG), compared to non-treated cells; FIG. 4C
From the text: FIG. 4C illustrates the detection of activated PI3K complexes in T47D cells (human ductal breast epithelial tumor cell line) treated with heregulin (HRG), compared to non-treated cells. In some embodiments, the detection of PI3K complexes will also correlate with the detection of activated (e.g., phosphorylated) PI3K. […]

PI3K pathway = assay: CEER-FNA pathway profiling of breast cancer tumor samples exposed to anti-cancer therapy; format: cell-based; settings: breast cancer tumor samples exposed to AKT inhibitor and/or Lapatinib; FIG. 17
From the text: The breast cancer tumor samples were exposed to AKT inhibitor and/or Lapatinib (a tyrosine kinase inhibitor). This example illustrates that cancer cells can adapt to therapeutic pressure due to drug therapy. […] FIG. 17 illustrates CEER-FNA analysis of biomarkers in pathway profiling of breast cancer cell samples after treatment with an AKT inhibitor, Lapatinib (a tyrosine kinase inhibitor) or combination therapy.

| Molecule | activation of HER2 heterodimers and PI3K [1] | detection of PI3K complexes (PI3K complex) | levels of phosphorylated pathway proteins after treatment (PI3K pathway) |
| --- | --- | --- | --- |
| heregulin [HRG] | activation of HER2 heterodimers and PI3K | PI3K complexes were detected |  |
| EGF: pathway activating ligand used to stimulate MCF7 cells | activation of HER2 heterodimers and PI3K |  |  |
| CS(=O)(=O)CCNCc1ccc(-c2ccc3ncnc(Nc4ccc(OCc5cccc(F)c5)c(Cl)c4)c3c2)o1 [Lapatinib, lapatinib] |  |  | Higher levels of phosphorylated PI3K, AKT, ERK |

Source: patent US9664683B2, “Profiling of signal pathway proteins to determine therapeutic efficacy” (Nestec S.A., priority 2011, dated 2017)
